T1: FcγRIIa R (human, UniProt P12318 34-217)
T1 construct: extracellular domain; Soluble His-tagged extracellular domain expressed in FreeStyle293 cells; analyte in Biacore; also called FcgRIIa R; FcgRIIaR; not shown: His tag attached to the C terminus
T1 sequence (looked up): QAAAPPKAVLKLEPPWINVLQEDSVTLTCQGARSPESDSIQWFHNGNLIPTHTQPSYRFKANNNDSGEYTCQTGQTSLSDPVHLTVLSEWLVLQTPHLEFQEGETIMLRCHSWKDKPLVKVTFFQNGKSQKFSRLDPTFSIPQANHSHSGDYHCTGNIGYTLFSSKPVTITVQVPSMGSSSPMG

T2: FcγRIIb (human, UniProt P31994 43-217)
T2 construct: extracellular domain; Soluble His-tagged extracellular domain expressed in FreeStyle293 cells; analyte in Biacore; also called FcgRIIb; 2b; not shown: His tag attached to the C terminus
T2 sequence (looked up): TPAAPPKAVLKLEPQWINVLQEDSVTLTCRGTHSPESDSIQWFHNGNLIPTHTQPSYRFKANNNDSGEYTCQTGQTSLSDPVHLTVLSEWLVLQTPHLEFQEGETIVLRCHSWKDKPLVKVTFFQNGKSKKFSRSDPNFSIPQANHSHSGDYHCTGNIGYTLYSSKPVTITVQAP

B1: GpH7-A5/GpH7-B3 variant P329_13S/GpL16-k0 (antibody, human IgG1, kappa)
heavy 1: not shown
heavy 2: not shown
light: DIVMTQSPLSLPVTPGEPASISCQASESLVHSNRNTYLHWYLQKPGQSPQLLIYKVSNRFSGVPDRFSGSGSGTDFTLKISRVEAEDVGVYYCSQNTHVPPTFGQGTKVEIERTVAAPSVFIFPPSDEQLKSGTASVVCLLNNFYPREAKVQWKVDNALQSGNSQESVTEQDSKDSTYSLSSTLTLSKADYEKHKVYACEVTHQGLSSPVTKSFNRGEC
notes: Heterodimerized anti-glypican-3 IgG1 antibody; alteration only in the GpH7-B3 H chain; position in EU numbering; also called He Ab
B2: GpH7-A5/GpH7-B3 variant P329_15Y/GpL16-k0 (antibody, human IgG1, kappa)
heavy 1: not shown
heavy 2: not shown
light: B1 light
notes: as for B1
B3: GpH7-A5/GpH7-B3 variant Y300_18N/GpL16-k0 (antibody, human IgG1, kappa)
heavy 1: not shown
heavy 2: not shown
light: B1 light
notes: as for B1
B4: GpH7-A5/GpH7-B3 variant P329_14T/GpL16-k0 (antibody, human IgG1, kappa)
heavy 1: not shown
heavy 2: not shown
light: B1 light
notes: as for B1
B5: GpH7-A5/GpH7-B3 variant S298_15Y/GpL16-k0 (antibody, human IgG1, kappa)
heavy 1: not shown
heavy 2: not shown
light: B1 light
notes: as for B1
B6: GpH7-A5/GpH7-B3 variant S298_12R/GpL16-k0 (antibody, human IgG1, kappa)
heavy 1: not shown
heavy 2: not shown
light: B1 light
notes: as for B1
B7: GpH7-A5/GpH7-B3 variant P329_19Q/GpL16-k0 (antibody, human IgG1, kappa)
heavy 1: not shown
heavy 2: not shown
light: B1 light
notes: as for B1
B8: GpH7-A5/GpH7-B3 variant S298_20W/GpL16-k0 (antibody, human IgG1, kappa)
heavy 1: not shown
heavy 2: not shown
light: B1 light
notes: as for B1
B9: GpH7-A5/GpH7-B3 variant P329_18N/GpL16-k0 (antibody, human IgG1, kappa)
heavy 1: not shown
heavy 2: not shown
light: B1 light
notes: as for B1
B10: GpH7-A5/GpH7-B3 variant S298_14T/GpL16-k0 (antibody, human IgG1, kappa)
heavy 1: not shown
heavy 2: not shown
light: B1 light
notes: as for B1
B11: GpH7-A5/GpH7-B3 variant S298_18N/GpL16-k0 (antibody, human IgG1, kappa)
heavy 1: not shown
heavy 2: not shown
light: B1 light
notes: as for B1
B12: GpH7-A5/GpH7-B3 variant S298_16H/GpL16-k0 (antibody, human IgG1, kappa)
heavy 1: not shown
heavy 2: not shown
light: B1 light
notes: as for B1
B13: GpH7-A5/GpH7-B3 variant P331_01G/GpL16-k0 (antibody, human IgG1, kappa)
heavy 1: not shown
heavy 2: not shown
light: B1 light
notes: as for B1

What follows are binders tested against T1, FcγRIIa R (assay: ratio of He/Con_2aR to He/Con_2b (binding to FcγRIIb as reference); SPR).
B1 was tested, and the “He_2aR/2b (IIaR/IIb)” value was 1.5.
With B2 the “He_2aR/2b (IIaR/IIb)” value was 1.49.
For B3, the “He_2aR/2b (IIaR/IIb)” value was 1.21.
With B4 the “He_2aR/2b (IIaR/IIb)” value was 1.51.
With B5 the “He_2aR/2b (IIaR/IIb)” value was 1.29.
With B6 the “He_2aR/2b (IIaR/IIb)” value was 1.48.
In the case of B7, the “He_2aR/2b (IIaR/IIb)” value is reported as 1.34.
For B8, the “He_2aR/2b (IIaR/IIb)” value was 1.35.
B9 was tested, and the “He_2aR/2b (IIaR/IIb)” value was 1.51.
For B10, the “He_2aR/2b (IIaR/IIb)” value was 1.26.
B11 was tested, and the “He_2aR/2b (IIaR/IIb)” value was 1.41.
For B12, the “He_2aR/2b (IIaR/IIb)” value was 1.39.
With B13 the “He_2aR/2b (IIaR/IIb)” value was 1.34.

The binders below were run against T1, FcγRIIa R (assay: SPR (Biacore), antibody captured via antigen peptide, FcγR as analyte).
Method: (§1) The heterodimerized antibodies He Abs in which one of the H chains was introduced with an alteration were assayed for their binding activities to each activating FcγR and inhibitory FcγR according to the method described in Example 4. […] The activating FcγRs in FIGS. 26, 27, 28, and 29 are FcγRIa, FcγRIIa (R), FcγRIIa (H), and FcγRIIIa, respectively.
(§2) Analysis of interaction between objective antibody and the FcγR was carried out using Biacore T100 (GE Healthcare). HBS-EP+ (GE Healthcare) was used as the running buffer, and the measurement temperature was set to 25° C. Chips produced by immobilizing the antigen peptide by the amine coupling method to a Series S Sencor Chip CM5 (GE Healthcare), or alternatively, chips produced by allowing preliminarily biotinylated antigen peptides to interact with and immobilize onto a Series S Sensor Chip SA (certified) (GE Healthcare) were used. Antibodies of interest were captured onto an antigen peptide-immobilized chip, and allowed to interact to each FcγR diluted with running buffer. To regenerate and repeatedly use the chip, the antibodies captured on the chip were washed off by reacting 10 mM glycine-HCl, pH 1.5.
In the case of B1, the “He/Con_2aR (IIaR binding relative to GpH7-A5/GpH7-B3/GpL16-k0)” value is reported as 61.5 % of control (control = 100).
B2 was tested, and the “He/Con_2aR (IIaR binding relative to GpH7-A5/GpH7-B3/GpL16-k0)” value was 67.9 % of control (control = 100).
With B3 the “He/Con_2aR (IIaR binding relative to GpH7-A5/GpH7-B3/GpL16-k0)” value was 100 % of control (control = 100).
For B4, the “He/Con_2aR (IIaR binding relative to GpH7-A5/GpH7-B3/GpL16-k0)” value was 57.3 % of control (control = 100).
For B5, the “He/Con_2aR (IIaR binding relative to GpH7-A5/GpH7-B3/GpL16-k0)” value was 79.1 % of control (control = 100).
With B6 the “He/Con_2aR (IIaR binding relative to GpH7-A5/GpH7-B3/GpL16-k0)” value was 85.3 % of control (control = 100).
In the case of B7, the “He/Con_2aR (IIaR binding relative to GpH7-A5/GpH7-B3/GpL16-k0)” value is reported as 41.1 % of control (control = 100).
In the case of B8, the “He/Con_2aR (IIaR binding relative to GpH7-A5/GpH7-B3/GpL16-k0)” value is reported as 55.4 % of control (control = 100).
B9 was tested, and the “He/Con_2aR (IIaR binding relative to GpH7-A5/GpH7-B3/GpL16-k0)” value was 61.2 % of control (control = 100).
With B10 the “He/Con_2aR (IIaR binding relative to GpH7-A5/GpH7-B3/GpL16-k0)” value was 98.5 % of control (control = 100).
In the case of B11, the “He/Con_2aR (IIaR binding relative to GpH7-A5/GpH7-B3/GpL16-k0)” value is reported as 68 % of control (control = 100).
In the case of B12, the “He/Con_2aR (IIaR binding relative to GpH7-A5/GpH7-B3/GpL16-k0)” value is reported as 88.5 % of control (control = 100).
With B13 the “He/Con_2aR (IIaR binding relative to GpH7-A5/GpH7-B3/GpL16-k0)” value was 61 % of control (control = 100).

Each binder was assayed against T2, FcγRIIb in the same assay as above.
Method: as §1, §2
With B1 the “He/Con_2b (IIb binding relative to GpH7-A5/GpH7-B3/GpL16-k0)” value was 41 % of control (control = 100).
For B2, the “He/Con_2b (IIb binding relative to GpH7-A5/GpH7-B3/GpL16-k0)” value was 45.7 % of control (control = 100).
With B3 the “He/Con_2b (IIb binding relative to GpH7-A5/GpH7-B3/GpL16-k0)” value was 82.7 % of control (control = 100).
B4 was tested, and the “He/Con_2b (IIb binding relative to GpH7-A5/GpH7-B3/GpL16-k0)” value was 37.9 % of control (control = 100).
B5 was tested, and the “He/Con_2b (IIb binding relative to GpH7-A5/GpH7-B3/GpL16-k0)” value was 61.4 % of control (control = 100).
B6 was tested, and the “He/Con_2b (IIb binding relative to GpH7-A5/GpH7-B3/GpL16-k0)” value was 57.8 % of control (control = 100).
With B7 the “He/Con_2b (IIb binding relative to GpH7-A5/GpH7-B3/GpL16-k0)” value was 30.7 % of control (control = 100).
For B8, the “He/Con_2b (IIb binding relative to GpH7-A5/GpH7-B3/GpL16-k0)” value was 41.1 % of control (control = 100).
For B9, the “He/Con_2b (IIb binding relative to GpH7-A5/GpH7-B3/GpL16-k0)” value was 40.4 % of control (control = 100).
B10 was tested, and the “He/Con_2b (IIb binding relative to GpH7-A5/GpH7-B3/GpL16-k0)” value was 77.9 % of control (control = 100).
In the case of B11, the “He/Con_2b (IIb binding relative to GpH7-A5/GpH7-B3/GpL16-k0)” value is reported as 48.1 % of control (control = 100).
In the case of B12, the “He/Con_2b (IIb binding relative to GpH7-A5/GpH7-B3/GpL16-k0)” value is reported as 63.5 % of control (control = 100).
B13 was tested, and the “He/Con_2b (IIb binding relative to GpH7-A5/GpH7-B3/GpL16-k0)” value was 45.4 % of control (control = 100).

Reference: patent US20150344570A1 (published 2015)
